Measurements taken from PMC8085991.

Test system: Nc1nc2c(ncn2[C@@H]2O[C@H](COP(=O)(O)OP(=O)(O)OP(=O)(O)O)[C@@H](O)[C@H]2O)c(=O)[nH]1
Experiment: purified protein
Details: 59 nM GST-FlhFBb; GTP 0-100 μM; room temperature

## rFlhFBb (BB0270, GST-FlhFBb) (Borreliella burgdorferi B31)
  Km: 10.71 ± 2.08 µM
  Vmax: 113 µmol/min
  kcat: 0.0318 ± 0.00133 s⁻¹
  kcat/Km: 2970 M⁻¹ s⁻¹
